Results published in publication PMC2528289.

Target: T1, FliI, flagellar ATPase, full-length protein released from GST-FliI by thrombin (S. typhimurium SJW1103), P26465
T1 chain: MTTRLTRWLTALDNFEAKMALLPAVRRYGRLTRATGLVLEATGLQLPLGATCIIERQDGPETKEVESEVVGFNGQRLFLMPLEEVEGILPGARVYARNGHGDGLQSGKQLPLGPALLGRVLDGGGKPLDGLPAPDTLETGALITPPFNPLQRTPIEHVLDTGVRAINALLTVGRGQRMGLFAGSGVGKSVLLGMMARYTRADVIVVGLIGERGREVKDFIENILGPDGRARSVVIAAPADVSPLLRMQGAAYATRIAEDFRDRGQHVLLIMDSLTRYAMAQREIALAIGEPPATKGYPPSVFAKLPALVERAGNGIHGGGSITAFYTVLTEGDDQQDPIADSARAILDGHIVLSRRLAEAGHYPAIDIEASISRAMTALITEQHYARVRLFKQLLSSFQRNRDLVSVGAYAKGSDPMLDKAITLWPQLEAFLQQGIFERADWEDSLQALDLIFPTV
Experiment: negative-stain electron microscopy with single particle analysis
Conditions: remark: other sources report otherwise

B1: FliI, flagellar ATPase, full-length protein released from GST-FliI by thrombin, P26465 1-456 (enzyme)
chain: MTTRLTRWLTALDNFEAKMALLPAVRRYGRLTRATGLVLEATGLQLPLGATCIIERQDGPETKEVESEVVGFNGQRLFLMPLEEVEGILPGARVYARNGHGDGLQSGKQLPLGPALLGRVLDGGGKPLDGLPAPDTLETGALITPPFNPLQRTPIEHVLDTGVRAINALLTVGRGQRMGLFAGSGVGKSVLLGMMARYTRADVIVVGLIGERGREVKDFIENILGPDGRARSVVIAAPADVSPLLRMQGAAYATRIAEDFRDRGQHVLLIMDSLTRYAMAQREIALAIGEPPATKGYPPSVFAKLPALVERAGNGIHGGGSITAFYTVLTEGDDQQDPIADSARAILDGHIVLSRRLAEAGHYPAIDIEASISRAMTALITEQHYARVRLFKQLLSSFQRNRDLVSVGAYAKGSDPMLDKAITLWPQLEAFLQQGIFERADWEDSLQALDLIFPTV
Q: B1 was tested. Which stoichiometry N did it give?
A: Its stoichiometry N is 6.
